Measured values reported in paper PMC4475061.
One block for each substance: values may come before it.

How the values were obtained:
[1] = biological target: CHMP1A (positive-control partner of the Gal4-CHMP1B constructs in the two-hybrid assay); test: yeast two-hybrid (β-galactosidase activity); conditions: parent: est. 0.71; read off a plot
[2] = biological target: IST1 MIM1 peptide (residues 344–366), fluorescently labeled (human); test: fluorescence polarisation; 250 pM Oregon Green 488-labeled IST1 peptides, twofold dilutions of ULK3 proteins; 25 mM Tris pH 7.2, 150 mM NaCl, 0.1 mg/mL BSA, 0.01% Tween-20, 1 mM DTT; 1:1 fit
[3] = biological target: IST1 MIMs peptide (residues 316–366), fluorescently labeled (human); test: as above

Substance: CHMP1B WT fused to the Gal4 DNA-binding domain (from UniProt Q7LBR1) T178R; A181R; E184R
- response [1]: 0.89

Substance: ULK3 MIT2 (residues 359–449) (from UniProt Q6PHR2 359-449) (domain or fragment)
- Kd [2]: 770 nM

Substance: ULK3(MIT)2 (residues 277–449) (from UniProt Q6PHR2 277-449) (domain or fragment)
- Kd [3]: 200 nM

Next, values leading:

- fold reduction of binding against wild-type ULK3(MIT)2 [3]: > 100 fold
Substance: ULK3(MIT)2 M434D (from UniProt Q6PHR2 277-449) (domain or fragment)

- fold reduction of binding against wild-type ULK3(MIT)2 [3]: < 2 fold
Substance: ULK3(MIT)2 V338D (from UniProt Q6PHR2 277-449) (domain or fragment)
